Here are results for 23 sequences from the DeepSol protein solubility set.

A short description of the data set: soluble on expression in E. coli; label from the status in PepcDB or PDB records.
Turning to “MAHHHHHHMVDYGEGGKNGSLDTVRQTLVCATRILMLAVSCKKVQLIYTLLPFMALIFKELLVSDDEERLRALFSDAKGQCALAGLRRSTANLSLLLDTEQDFTTLSSPWSFSYDTSEVGMKEIRSLTTFLVSGDSGLSEALEYVTTDCLRSGRLLTLYEIVRGFSLSPYGMMELKLDEVRDPHCGVSSHGEGSSVRGHFPHLPTHGELFLNLFTGIHEEFSLTRSPRCVGNELRRHRSSVVGAEVATTDFTLWTLAQSILYSTPGLPETLRHLRDHFAMWDECVLAINIILMCFTDVVHQLRRHSELVQALQHLLVDERNCGYKSFIRYCLENVS”, the “soluble on expression in E. coli” value is “not soluble”.
Turning to “MGSDKIHHHHHHLSGCVSLPPPAPIVHQPMSARAALPAPPPGNGAVYQDANQYHSLFIDRRARQIGDTLVILLTERTNASKRSNSSANKNGDVSFGIPPIVFGVPITKKIDLGASSSNDFAGKGEAASANNFSGTITVTVVDVLPNSYLVVSGEKQLAMTQGSEYIRFSGVVRPETVISNTVSSIQVADARIEYKANGYIDEAQTMGWLSRFFLTVAPF”, the “soluble on expression in E. coli” value is listed as “not soluble”.
Regarding “FVRMIFSAEKSVWIQTPYLIPDDSMINALLVAVRSGVDVRIMIPCMPDHPFIYRATQYYANYLHKRGIKIYIYDSGFIHAKTMVIDDELAMVGTTNQDIRSYSLNFEVSTFIYNPDIAWMLAQVFEEDIEKSVLLTDEIIKKQGYWLRFKQNFSRLLSPVL”, the “soluble on expression in E. coli” value was “not soluble”.
As to “MIGSGSQRKIGIVIKALLDQAEELDIINKNKIRCTDIPRQGKAERRYLTIRGIDRLLAAAIPMNEVALMRNVLLFTGLRPREAKGLKVKDLDPMRGRLSIRRDVDDLGNPDETKTRNHRGVPIGGDLLFDLDDQAEGKQPHDWLLTDETGHV”, the “soluble on expression in E. coli” value is recorded as “not soluble”.
Regarding “MAHHHHHHMSASPQLTRELSEDLLAGRYECVVCSEPVGHRQELWACSCCYGVFHLPCIRFWADSQMKARDRQLQSTSGVAVRGELERFRCPLCQSFKDKDSLAVYQCYCGKTAKPPADAMLVPGSCGQPCERRQADPCCPHRCTLLCHPGPCPACTRVREQACWCGKHSKTVGCSSSIHGYECDEACGKLLDCGEHRCKAPCHEGVCPVCTVMVTEKCYCGATVRTRRCGAAPPAFAGAAATAAADDRAAGDAGAGASVSGFRCAHHCEKKRDCDQHVCGMLCHPGLCEKCYRTPQRQKFCPCGKTRVQVERTSCMDPVPSCGLPCELPLPCGHLCWLTCHDETPCAPCKETVTVPCACGSRHVSSPCFCQYLPESEWEAARVQCGLPTDSLPVSVPPKCNQVCRHMLSCHKHRCTMTCCTDAEHTCLQICIRKLACGVHQCGRLCHQGKCPPCAHVSYERLYCRCRKTWVDPPVPCGMRPPQCNHPCSIPRPCGHPPNHPCHIEAECPKCVVLEEKPCASHQKPMPFHMPCYKKEISCGRKCGKNLPCCGKFCDLVCHIGPCEHDCAKSFPTLADVLKRGKGAAA”, the “soluble on expression in E. coli” value is “not soluble”.
For the sequence “MEITNPILTGFNPDPSLCRQGEDYYIATSTFEWFPGVRIYHSRDLKNWSLVSTPLDRVSMLDMKGNPDSGGIWAPCLSYADGKFWLLYTDVKIVDSPWKNGRNFLVTAPSIEGPWSEPIPMGNGGFDPSLFHDDDGRKYYIYRPWGPRHHSNPHNTIVLQAFDPQTGTLSPERKTLFTGTPLCYTEGAHLYRHAGWYYLMAAEGGTSYEHAVVVLRSKNIDGPYELHPDVTMMTSWHLPENPLQKSGHGSLLQTHTGEWYMAYLTSRPLRLPGVPLLASGGRGYCPLGRETGIARIEWRDGWPYVEGGKHAQLTVKGPQVAEQPAAVPGNWRDDFDASSLDPELQTLRIPFDDTLGSLTARPGFLRLYGNDSLNSTFTQSTVARRWQHFAFRAETRMEFSPVHFQQSAGLTCYYNSKNWSYCFVDYEEGQGRTIKVIQLDHNVPSWPLHEQPIPVPEHAESVWLRVDVDTLVYRYSYSFDGETWHTVPVTYEAWKLSDDYIGGRGFFTGAFVGLHCEDISGDGCYADFDYFTYEPV”, the “soluble on expression in E. coli” value is listed as “soluble”.
Consider “MAVARWLRDHSGPDDVVATNAHCRFAVSDSCDNRHFWISGYTERRVLVEGWGYTARTLASLTDVDREPMGAVPFWDAELLAANDAVFTAPTARAVDLLARRYGVRWLMVDRRRPLTAPDLGQFARLRYARGSFAVYSTLS”, for which the “soluble on expression in E. coli” value was “not soluble”.
With “AQRRAVAAAGGLARSCPAGQQALLAEGFARRLLRDVAATLHEGEYTSPLCEPLAYADPLAGLAAALAELMAWPGLLAVLQPVQAQPDAVAAAAGAGAPAAAGAGVGAGSGARQRLAQETADRARAEVLVLLQELVTWLDPCCDDSRGVAPQDAAAVSLAAFRSLVEHDPGAAAALDADTNIRWYLCNLTGDDAPPAAPPAECVAPQSDMLLDLARRLLAALPPLAAAAAPG”, the “soluble on expression in E. coli” value was “not soluble”.
With “MRDYVEIGMGREARRTYHLDSVAIVPSRRTRSSKDVDTTWHIDAYTFDIPFMSHPTDALATPDFVIEMDKQGGLGVINAEGLWGRHADLDAAIQEVITAYGDDELDLGSCNRATKKLQELHAAALDTELLVERIAQVRSSGAT”, the “soluble on expression in E. coli” value is listed as “not soluble”.
Regarding “MAKESVKILQGKLDVKSLIDQLNAALSEEWLAYYQYWVGALVVEGAMRADVQGEFEEHAEEERHHAQLIADRIIELEGVPVLDPKKWFELARCKYDSPTAFDSVSLLNQNVSSERCAILRYQEIANFTNGKDYTTCDIAKHILAEEEEHEQDLQDYLTDIARMKESFLKK”, the “soluble on expression in E. coli” value is on record as “soluble”.
As to “MNVSVLNFGNTPVSFRQDGFLNATAIASHFGKLPKDYLKSEQTQQYISALAENLSVRRKILTEANQIVIVKRGGSEQGTWLHPKLAIHFARWLNPKFAVWCDEQIEILLNGKISDGIKTVTPKPTRALPDGLTGEQIEAVKKLHNALTKSAPKEAQARIAITLWSAVKSKFGCSYKEVPAEQFPEVLSVMGRVAVENGVLYGEVLDREPLPAPQPALPISGNALYDLAVAVRYGAWAIQMGRDVSLPLKQLGCKQAVTMWTVWAETRSRLKAAANALEALNAHADAEHAAKIRPMLPEIRNLSSV”, the “soluble on expression in E. coli” value was “not soluble”.
Consider “MSREDELLEKLDECENATAFLQVSNKIINLKLKALLPSVFVQDDLVKEYAVDPLLREDGPLVTTDVVSKLMFAMGKISLQTYADIGLYDQVLEYVVTQPEKIAFTDDVIYDFIKNQAVLSSQQDCFYLESINQLKFSSFESFSQMRYESLIKTVLKLSCEMLIERIEEEINQ”, for which the “soluble on expression in E. coli” value is “soluble”.
Consider “MGQFILEIYKIRIVSQTHLFSKLIFHSFLSFLFNDFSHLSASLPPLIDLSTKKKLLARASEGATSSSSPLPPASTATLSAFRPPARMIPPPVVLPQQYAPLPGFTPLLPAQAMMANFPPNALYQLGTPPFENGNNRIRFKDAAMVVLSRLSFNQRRLDNAHQ”, for which the “soluble on expression in E. coli” value is “not soluble”.
As to “MSLLKNVEVFWQNFLDKHELDMLMPDVWMFGDGSSEMGNRLGQLVVSGRKTATCSSLDIYKMEEEQLPKAGQYDIILDGQSQPLAIIRTTKVEIMPMNKVSESFAQAEGEGDLTLDYWYEEHARFFKEELAPYQLQFYPDMLLVCQSFEVVDLYTEKEEGGSHHHHHH”, the “soluble on expression in E. coli” value was “soluble”.
On to “GGSCFKCGKKGHFAKNCHEHAHNNAEPKVPGLCPRCKRGKHWANECKSKTDNQGNPIPPH”, for which the “soluble on expression in E. coli” value is “soluble”.
“MASQEFQGFLDSSLLNEEDCRQMIYRSEREHDARMVGVNVDQHFTSQYRKVLTTWMFCVCKDLRQDNNVFPLAVALLDELFLSTRIDRENYQSTAAVALHIAGKVRAYMPIKATQLAYLCGGATTADKLLTLEVKSLDTLSWVADRCLSTDLICYILHIMHAPREDYLNIYNLCRPKIFCALCDGRSAMKRPVLITLACMHLTMNQKYDYYENRIDGVCKSLYITKEELHQCCDLVDIAIVSFDENYFKINA”: the “soluble on expression in E. coli” value is “soluble”.
Take “MIKLSPIDKYKQDLTRDDFLFDAAQENAVIHLQRLYDDLQSKPLAVSGFKKVLNRWKKVYKKQEQEPIKGLYFWGGVGRGKTYLVDTFFESLPFNNKMRVHFHRFMHRVHQELKSLSGQSDPLKIIAKKFADETQIICFDEFFVSDITDAMILGTLFEELFAHNVTLVATSNIIPDELYRNGLQRERFLPAIKLINKHTLIVNVDSGVDYRLRTLEQAEIFHYPLDAQADENLKHYFKQLSTDEGKSGQSIEIHNRPLKTVLVSDGVVYFDFSVLCESARSQGDYMEISQLYHTVLMANVKEMGPDSDDTTRRFIALVDEFYERNVKLIMSAELPLDDLYSGGRLAFEFKRCLSRLQEMQSHDYLASEHLPLEHHHHHH”: the “soluble on expression in E. coli” value was “not soluble”.
The entry for “MAHHHHHHMKTCKTGIQKVRDVSEATVLVLDWFERRNKPATPQSLADALGSRVAKSLLQKILEQLHAEEKLHVKDMKKIRFYYRRVLPLSDADGATTTKQHSEPEDDPAATTGERGNAVNVPEVCGGAETCAESPADAHAALLHAVAISAVQLSERSLRLTRWRGWPSSTERADKYADLAREVCELRNSLERLQSRHAGESAEAHGGGSWTSRVRRAVCRYRRARRHWVQRKDWAMCLLEATAGDAHTPLQAAALLGCTTDAEAGVSFEDTAVALPAPLMRELNLSQR” is “not soluble”; for “METRRIRKVLVANRGEIAIRVFRACTELGIRTVAIYSKEDVGSYHRYKADEAYLVGEGKKPIEAYLDIEGIIEIAKAHDVDAIHPGYGFLSENIQFAKRCREEGIIFIGPNENHLDMFGDKVKARHAAVNAGIPVIPGSDGPVDGLEDVVAFAEAHGYPIIIKAALGGGGRGMRIVRSKSEVKEAFERAKSEAKAAFGSDEVYVEKLIENPKHIEVQILGDYEGNIVHLYERDCSVQRRHQKVVEVAPSVSLSDELRQRICEAAVQLMRSVGYVNAGTVEFLVSGDEFYFIEVNPRIQVEHTITEMITGIDIVQSQILIADGCSLHSHEVGIPKQEDIRINGYAIQSRVTTEDPLNNFMPDTGKIMAYRSGGGFGVRLDAGNGFQGAVITPYYDSLLVKLSTWALTFEQAARKMLRNLREFRIRGIKTNIPFLENVVQHPKFLSGEYDTSFIDTTPELFVF” it is “soluble”.
For “PARLSTADKYTENPVSGVMAQLYSARSKNSWGMGDFNDLGLLAETLAPQADYLLINPLHAAEPMPPVEDSPYLPTTRRFINPIYIRIEDIPEHLLLDDDLQNDIAELAEKFTALNLTPEKIERNPIFDAKLQVLHAVFNVEREPAREQDFQDFIATEGQGLRDFASWCADQELAVLESSAAHAALPEKESLIQFYMWQQWICDQQLGAAQTRATD”, the “soluble on expression in E. coli” value was “not soluble”.
As to “MTSSAMDNNEPKVLEMVYDATILPECSGMDPSIIDCINRHINMRIQRSYSSNIIAILDRFLMMNKDELNNTQCHIIKEFMTYEQMAIDYYGGYVNAILYQIRKRPNQHHTIDLFKRIKRTRYDTFKVNPVEFVKKVIGFVSILNKYKPIYSYVLYENVLYDELKCFIDYVETKYFQN”, the “soluble on expression in E. coli” value is listed as “not soluble”.
For the sequence “GHHHHHHMKVGYVAIVGKPNVGKSTLLNNLLGTKVSIISPKAGTTRMRVLGVKNIPNEAQIIFLDTPGIYEPKKSDVLGHSMVEIAKQSLEEADVILFMIDATEGWRPRDEEIYQNFIKPLNKPVIVVINKIDKIGPAKNVLPLIDEIHKKHPELTEIVPISALKGANLDELVKTILKYLPEGEPLFPEDMITDLPLRLLAAEIVREKAMMLTREEVPTSIAVKINEIKPGDANPNMLVIKGEIIVDRENLKPIIIGKKGQRLKEIGKRARQELELILGRPVYLELWVKVVPDWRRRPEYVRLFGYAL”, the “soluble on expression in E. coli” value is “soluble”.
In the case of “MGSDKIHHHHHHMIVLGHRGYSAKYLENTLEAFMKAIEAGANGVELDVRLSKDGKVVVSHDEDLKRLFGLDVKIRDATVSELKELTDGKITTLKEVFENVSDDKIINIEIKEREAADAVLEISKKRKNLIFSSFDLDLLDEKFKGTKYGYLIDEENYGSIENFVERVEKERPYSLHVPYQAFELEYAVEVLRSFRKKGIVIFVWTLNDPEIYRKIRREIDGVITDEVELFVKLR”, the “soluble on expression in E. coli” value is “not soluble”.
